According to publication PMC9803922, “Seawater fish use an electrogenic boric acid transporter, Slc4a11A, for boric acid excretion by the kidney” (The Journal of Biological Chemistry, 2022):

Substrate: OB(O)O
Test: two-electrode voltage clamp, boric acid-elicited currents in Xenopus oocytes
Format: cell-based, Takifugu obscurus
Conditions: total boric acid (B(OH)3 + B(OH)4-), Vh +60 mV, pH 7.5, 18 °C, Na+-independent electrogenic transport

B1: Slc4a11A (mfSlc4a11A) (Takifugu obscurus) (protein)
chain: MDMLSQEMELKDEKKEDYGEDSDAIHIYDTEAYISVSDPDRPGFGLLNTTRKYVKPMNFQEEVRAHRDLDNFLAQASILLDERATTLDEVLRRMLAHLLEEGRESCDPDEVMSSVFTDAGGKDFDVHLLSETIQGVTSTSTGIHYQQSWLCILTNLRSLQRRHVCIARLDRPQNWGVNCCEARYVIFILAPPRTKSTKTAIELGRTFATMFSDISFRQRLLETKTQEEFKQELLSYRQKLSTVQEKPVEEEEEDSDPRRGKALQCKDFLKAGKGVYRDLRRRLPLYPSDFTDGLTGKDRCLLKYTTTAIFLYIAILLPAIAFGSLNDESTRGEIDVQKTIVGQSIGGVIYALFAGSPLVIPLTTAPLAIFISVIRGICDDYDLDFDSFYACIGLWNSLFLILGGLFNVSLLMKLFKRSTEEVIALFISIAFVGDAVKGTVKIFQHFYRGPTLTTTNSTLVFQQLEGILNQTNNQTGNGLGEHGQADGHTLVFLPQSLVECTREMPILCLLLMLGTLWLGYTLYLIRRSPYLNDKIREVVSDCALPISVVICSFIGSYLFLNIKLPVFSVHDGPIFNYPPFDKLSGMSALSAVGLGFLLALLIFIDQNIVISLTHVPEHKLLKGTAFHWDLMLTGFINILMSCLGLPWMHAAFPHSSLHARQLAKVEQHVENGHLYTTIVSVKETRLTALAANILIGLSAFMLPIPLQWIPKPVLYGLFLYIAATSLDGNQMVDRMCLLLKEQTSYPPTHYVRRVPQRKVHFFTGVQMIQLIILCAFGMYPLPYMKMVFPLLMILLVPIRTSLLPKMIDAKYLDIMDAQHM
notes: full-length cDNA in pGEMHE, untagged, expressed in Xenopus laevis oocytes; 820 residues; C-terminal region antigen peptide PKMIDAKYLDIMDAQHM
Work on B1 yielded a Km of 6.5 ± 0.6 mM.
